Data taken from patent publication US20160052998A1 (GlaxoSmithKline, published 2016).
“And” between values parts separate entries of the source, which are not always exact repeats. Equal entries are not always repeated.

B4: Rat Serum Albumin (other, UniProt P02770 25-608, looked up)
chain: EAHKSEIAHRFKDLGEQHFKGLVLIAFSQYLQKCPYEEHIKLVQEVTDFAKTCVADENAENCDKSIHTLFGDKLCAIPKLRDNYGELADCCAKQEPERNECFLQHKDDNPNLPPFQRPEAEAMCTSFQENPTSFLGHYLHEVARRHPYFYAPELLYYAEKYNEVLTQCCTESDKAACLTPKLDAVKEKALVAAVRQRMKCSSMQRFGERAFKAWAVARMSQRFPNAEFAEITKLATDVTKINKECCHGDLLECADDRAELAKYMCENQATISSKLQACCDKPVLQKSQCLAEIEHDNIPADLPSIAADFVEDKEVCKNYAEAKDVFLGTFLYEYSRRHPDYSVSLLLRLAKKYEATLEKCCAEGDPPACYGTVLAEFQPLVEEPKNLVKTNCELYEKLGEYGFQNAVLVRYTQKAPQVSTPTLVEAARNLGRVGTKCCTLPEAQRLPCVEDYLSAILNRLCVLHEKTPVSEKVTKCCSGSLVERRPCFSALTVDETYVPKEFKAETFTFHSDICTLPDKEKQIKKQTALAELVKHKPKATEDQLKTVMGDFAQFVDKCCKAADKDNCFATEGPNLVARSKEALA
notes: mature; 'mature' inferred from purified serum protein; also called RSA; rat SA

How the values were obtained:
Human Serum Albumin [1] = biological target: T1, Human Serum Albumin (human, UniProt P02768 25-609); assay: SPR (BIAcore), albumin amine-coupled to CM5 chip
T1 construct: also called HSA; human SA

Rat Serum Albumin [2] = biological target: B4; assay: SPR (BIAcore), albumin amine-coupled to CM5 chip
[3] = biological target: T2, Cynomolgus monkey Serum Albumin (Cynomolgus monkey, UniProt A2V9Z4 25-608); assay: SPR (BIAcore), albumin amine-coupled to CM5 chip
T2 construct: mature; 'mature' inferred from purification out of serum; also called CSA; cyno serum albumin

mouse serum albumin [4] = biological target: T3, mouse serum albumin (mouse, UniProt P07724 25-608); assay: SPR (BIAcore), albumin amine-coupled to CM5 chip
T3 construct: mature; 'mature' inferred from purified serum protein; also called MSA; mouse SA

Human Serum Albumin [5] = biological target: T1, Human Serum Albumin; assay: SPR (BIAcore), albumin amine-coupled to CM5 chip; no KD given
Rat Serum Albumin [6] = biological target: B4; assay: as above
[7] = biological target: T2, Cynomolgus monkey Serum Albumin; assay: as above
mouse serum albumin [8] = biological target: T3, mouse serum albumin; assay: as above
mouse serum albumin [9] = biological target: T3, mouse serum albumin; assay: SPR (BIAcore); multiple independent measurements
mouse serum albumin [10] = biological target: T3, mouse serum albumin; assay: SPR (BIAcore); multiple independent measurements (first of two values of 12)
mouse serum albumin [11] = biological target: T3, mouse serum albumin; assay: SPR (BIAcore); multiple independent measurements (second of two values of 12)
[12] = biological target: T4, DOM7h-11-15/Exendin-4 fusion DMS number 7143; assay: SPR (BIAcore); KD as listed in PK table
T4 construct: Exendin-4 - (G4S)3 - AlbudAb, made in HEK293E; also called DMS7143

B1: DOM7r-92-4 (other)
VH: EVQLLESGGGLVQPGGSLRLSCAASGFTFDTSSMLWVRQAPGKGLEWVSVIHQSGTPTYYADSVKGRFTISRDNSKNTLYLQMNSLRAEDTAVYYCAKFPSTHGKFDYWGQGTLVTVSS
notes: Anti-serum albumin VH dAb (VH AlbudAb); also called DOM7h-92-4
Kd (Human Serum Albumin [1]): 130 nM
Kd (Rat Serum Albumin [2]): 260 nM
Kd [3]: 98 nM
Kd (mouse serum albumin [4]): 110 nM

B2: DOM7r31 (other)
VH: EVQLLESGGGLVQPGGSLRLSCTASGFTFRHYRMGWVRQAPGKGLEWVSWIRPDGTFTYYADSVKGRFTISRDNSKNTLYLQMNSLRAEDTAVYYCAKSYMGDRFDYWGQGTLVTVSS
notes: Anti-serum albumin VH dAb (VH AlbudAb)
binding result (Human Serum Albumin [5]): binds
binding result (Rat Serum Albumin [6]): binds
binding result [7]: binds
binding result (mouse serum albumin [8]): binds

B3: DOM7r-31-14 (other)
VH: EVQLLESGGGLVQPGGSLRLSCTASGFTFRHYRMGWVRQAPGKGLEWVSWIRPDGTFTYYADSVKGRFTISRDNSKNTLYLQMNSLRAEDTAVYYCAKSYMADRFDYWGQGTLVTVSS
notes: as for B2
Kd (mouse serum albumin [9]): 6 nM and 14.2 nM
Kd (mouse serum albumin [10]): 12 nM
Kd (mouse serum albumin [11]): 12 nM

B4
Kd [12]: 273 nM
